Assay [1] deals with soluble fusion protein comprising a DEC-205 extracellular domain (comprising all ten lectin-binding domains) fused with an antibody Fc domain (human) (UniProt O60449). The assay can be described thus: SPR (Biacore 2000), DEC-205 fusion protein amine-coupled to CM5 chip, antibody flowed at 1.25-200 nM, 1:1 Langmuir fit, mean of two series.
Assay [2] concerns the target T1, soluble fusion protein comprising a DEC-205 extracellular domain (comprising all ten lectin-binding domains) … (human, UniProt O60449 28-1666).
T1 construct: not shown: antibody Fc domain
The description is as above. The source says: Low levels of ligand were immobilised to limit any effects of mass transport of analyte on kinetic parameters, such that the RMAX observed was in the order of 200 RU.
The antigen-antibody association and dissociation kinetics were followed for approximately 300 to 600 seconds in each case.
Biacore's kinetics wizard was used in each case to derive kinetic parameters from the concentration series of analyte diluted in HBS-NP running buffer. The association and dissociation curves were fitted to a 1:1 Langmuir binding model using Biacore™ kinetics wizard software (Biacore AB) according to the manufacturer's guidelines. For each antibody, the figures shown are the mean of two separate series of experiments, using separately prepared sensor chips in each case, (where ka=rate constant of association, kd=rate constant of dissociation, KD=dissociation equilibrium constant (measure of affinity), KA=association equilibrium constant, Rmax=maximum SPR response signal).

The target of assay [3] is human DEC-205 expressed on the cell surface (human, UniProt O60449 28-1722). The assay can be described thus: flow cytometry on CHO-S cells expressing human DEC-205, saturating antibody, PE anti-human IgG Fc.
Assay [4] has as its target T1, soluble fusion protein comprising a …. The assay can be described thus: ELISA, plates coated with soluble DEC-205/Fc fusion protein, saturating antibody, AP anti-human IgG Fc, OD 405-650.

soluble fusion protein comprising a DEC-205 extracellular domain (comprising all ten lectin-binding domains) fused with an antibody Fc domain (human), sequence (O60449 28-1666 K1321N/Y1391H): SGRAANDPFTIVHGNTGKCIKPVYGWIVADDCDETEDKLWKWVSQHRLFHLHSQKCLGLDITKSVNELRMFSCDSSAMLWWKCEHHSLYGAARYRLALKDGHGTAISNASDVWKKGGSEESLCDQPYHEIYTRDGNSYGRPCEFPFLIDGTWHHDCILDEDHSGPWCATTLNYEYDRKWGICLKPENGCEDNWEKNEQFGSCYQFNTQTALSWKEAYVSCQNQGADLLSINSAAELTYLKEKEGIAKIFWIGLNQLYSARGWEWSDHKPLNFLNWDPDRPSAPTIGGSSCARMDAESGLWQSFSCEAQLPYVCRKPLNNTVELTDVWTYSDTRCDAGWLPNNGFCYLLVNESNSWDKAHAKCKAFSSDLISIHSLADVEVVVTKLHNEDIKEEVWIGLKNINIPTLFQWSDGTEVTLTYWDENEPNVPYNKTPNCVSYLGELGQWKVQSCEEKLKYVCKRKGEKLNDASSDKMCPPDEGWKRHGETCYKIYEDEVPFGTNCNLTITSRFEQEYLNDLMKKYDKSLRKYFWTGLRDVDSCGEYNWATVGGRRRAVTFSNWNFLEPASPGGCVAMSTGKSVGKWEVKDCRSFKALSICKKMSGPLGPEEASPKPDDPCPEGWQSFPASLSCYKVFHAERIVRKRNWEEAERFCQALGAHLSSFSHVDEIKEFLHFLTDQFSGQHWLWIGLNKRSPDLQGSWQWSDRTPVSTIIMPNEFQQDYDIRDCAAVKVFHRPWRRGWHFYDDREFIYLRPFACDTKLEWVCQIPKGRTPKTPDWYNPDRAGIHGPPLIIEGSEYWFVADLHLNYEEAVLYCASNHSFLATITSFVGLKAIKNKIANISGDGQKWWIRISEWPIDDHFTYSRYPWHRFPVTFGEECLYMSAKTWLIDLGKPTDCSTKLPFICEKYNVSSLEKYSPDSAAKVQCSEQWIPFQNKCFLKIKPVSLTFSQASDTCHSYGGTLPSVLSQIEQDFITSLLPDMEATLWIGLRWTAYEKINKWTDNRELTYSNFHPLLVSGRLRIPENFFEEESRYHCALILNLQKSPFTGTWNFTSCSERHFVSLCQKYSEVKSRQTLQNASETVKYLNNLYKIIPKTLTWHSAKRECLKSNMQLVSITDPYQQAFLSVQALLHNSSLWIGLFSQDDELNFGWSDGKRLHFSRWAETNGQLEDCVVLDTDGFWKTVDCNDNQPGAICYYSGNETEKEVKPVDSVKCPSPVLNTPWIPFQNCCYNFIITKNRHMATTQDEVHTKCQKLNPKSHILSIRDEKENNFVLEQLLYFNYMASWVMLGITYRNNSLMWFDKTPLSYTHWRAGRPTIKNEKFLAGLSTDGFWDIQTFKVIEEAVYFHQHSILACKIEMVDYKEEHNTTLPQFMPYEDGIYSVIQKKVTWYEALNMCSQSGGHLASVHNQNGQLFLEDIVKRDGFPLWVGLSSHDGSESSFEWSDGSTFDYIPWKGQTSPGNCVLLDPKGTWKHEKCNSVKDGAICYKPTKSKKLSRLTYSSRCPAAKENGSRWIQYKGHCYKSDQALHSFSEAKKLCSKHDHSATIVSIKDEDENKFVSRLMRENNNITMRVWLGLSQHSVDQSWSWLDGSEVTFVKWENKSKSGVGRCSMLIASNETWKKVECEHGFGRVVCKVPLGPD
T1 sequence (O60449 28-1666 K1321N/Y1391H): as above
human DEC-205 expressed on the cell surface, sequence (O60449 28-1722 K1321N/Y1391H limits assumed): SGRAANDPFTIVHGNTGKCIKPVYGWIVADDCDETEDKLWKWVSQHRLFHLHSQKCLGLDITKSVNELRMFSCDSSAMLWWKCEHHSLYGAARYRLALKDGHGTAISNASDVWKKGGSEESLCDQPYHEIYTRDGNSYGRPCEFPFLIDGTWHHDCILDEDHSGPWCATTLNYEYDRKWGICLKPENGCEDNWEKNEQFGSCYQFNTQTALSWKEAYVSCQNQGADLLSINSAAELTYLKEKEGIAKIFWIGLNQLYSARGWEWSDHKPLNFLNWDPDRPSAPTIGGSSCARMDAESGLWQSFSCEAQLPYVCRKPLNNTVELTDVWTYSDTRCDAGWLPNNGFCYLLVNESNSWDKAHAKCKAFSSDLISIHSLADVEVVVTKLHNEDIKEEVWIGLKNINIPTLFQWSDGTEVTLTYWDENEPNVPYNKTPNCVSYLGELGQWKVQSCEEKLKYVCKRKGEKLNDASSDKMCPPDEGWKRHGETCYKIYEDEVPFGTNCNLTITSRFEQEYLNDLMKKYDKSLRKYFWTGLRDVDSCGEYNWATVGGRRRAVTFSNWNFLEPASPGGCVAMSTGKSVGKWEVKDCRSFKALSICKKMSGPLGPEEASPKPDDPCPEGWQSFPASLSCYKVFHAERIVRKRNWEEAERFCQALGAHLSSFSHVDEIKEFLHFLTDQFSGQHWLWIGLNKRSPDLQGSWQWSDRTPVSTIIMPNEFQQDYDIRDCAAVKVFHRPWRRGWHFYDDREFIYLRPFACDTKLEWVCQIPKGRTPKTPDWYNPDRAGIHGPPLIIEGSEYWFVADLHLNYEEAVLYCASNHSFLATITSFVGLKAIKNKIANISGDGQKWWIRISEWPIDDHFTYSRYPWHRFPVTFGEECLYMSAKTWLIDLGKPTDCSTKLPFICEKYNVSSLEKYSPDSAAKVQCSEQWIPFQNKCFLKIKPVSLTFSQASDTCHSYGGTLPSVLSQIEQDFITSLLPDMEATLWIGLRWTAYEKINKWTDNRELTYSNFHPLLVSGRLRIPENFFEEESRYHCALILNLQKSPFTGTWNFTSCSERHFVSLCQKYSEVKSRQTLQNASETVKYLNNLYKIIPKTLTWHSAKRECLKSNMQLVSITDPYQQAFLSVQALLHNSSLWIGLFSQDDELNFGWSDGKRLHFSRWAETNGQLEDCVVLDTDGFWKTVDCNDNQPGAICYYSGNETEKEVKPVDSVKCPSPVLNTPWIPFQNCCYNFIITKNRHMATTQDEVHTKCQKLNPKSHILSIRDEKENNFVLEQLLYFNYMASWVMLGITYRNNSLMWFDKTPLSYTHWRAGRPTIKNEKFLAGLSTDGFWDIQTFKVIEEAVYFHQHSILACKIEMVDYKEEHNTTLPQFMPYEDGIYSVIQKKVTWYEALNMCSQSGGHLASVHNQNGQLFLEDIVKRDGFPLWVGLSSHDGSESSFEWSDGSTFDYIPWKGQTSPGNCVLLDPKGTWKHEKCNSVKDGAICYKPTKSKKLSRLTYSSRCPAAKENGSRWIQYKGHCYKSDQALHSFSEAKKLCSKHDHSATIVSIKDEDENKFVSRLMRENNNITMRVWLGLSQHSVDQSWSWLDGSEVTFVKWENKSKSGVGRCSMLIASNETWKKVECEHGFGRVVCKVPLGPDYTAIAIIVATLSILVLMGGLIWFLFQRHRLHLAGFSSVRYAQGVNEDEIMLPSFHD

B1: 2D3-1F5-2A9 (antibody, part only; not given: light chain, V domains shown, part only)
VH: EVQLVQSGGGLVHPGGSLRLSCAGSGFTFSNYAMHWVRQAPGKGLEWVSTIGTGGGTPYADSVKGRFTISRDNAKNSLYLQMNSLRAEDMAVYYCALSAFDVWGQGTMVTVSSASTKGPSVFPLA
In assay [1], B1 returned a Ka of 1.5e+10 M⁻¹, a Kd of 0.068 nM, a koff of 2.2e-05 s⁻¹ and an on-rate constant (kon) of 330000 M⁻¹ s⁻¹.

B2: 3C7-3A3 (antibody, V domains shown)
VH: QVQLVESGGGVVQPGRSLRLSCAASGFTFSSYNMHWVRQAPGKGLEWVAFIWYDGSNKYYGDSVKGRFTISRDNSKNTLYLQMNSLRAEDTAVYYCAREELGIGWYFDLWGRGTLVTVSS
VL: EIVLTQSPATLSLSPGERATLSCRASQSVSSYLAWYQQKPGQAPRLLIYDASNRATGIPARFSGSGSGTDFTLTISSLEPEDFAVYYCQQRRTFGQGTKVEIK
notes: Human IgG (kappa) from a hybridoma, protein A purified; also called mAb #3; HuMab 3C7-3A3
In the case of B2, in assay [2], the Ka is 5.2e+08 M⁻¹, the Kd was 5.6 nM, the koff came to 0.00076 s⁻¹ and the kon was 170000 M⁻¹ s⁻¹.

B3: 5A8-1F1 (antibody, V domains shown)
VH: QVQLVESGGGVVQPGRSLRLSCAASGFTFSTYGMHWVRQAPGKGLEWVAIIWYDGGNKYYADSVKGRFTISRDNSKNTLYLQMNSLRAEDTAVYYCARDFYWYFDLWGRGTLVTVSS
VL: B2 VL
notes: Human IgG (kappa) from a hybridoma, protein A purified; also called mAb #2; HuMab 5A8-1F1
As to B3, in assay [2], the Ka stood at 2.1e+09 M⁻¹, the dissociation constant Kd was found to be 1.5 nM, the koff stood at 0.0002 s⁻¹ and the kon came out at 360000 M⁻¹ s⁻¹.

B4: 3G9-2D2 (antibody, V domains shown)
VH: QVQLVESGGGVVQPGRSLRLSCAASGFTFSNYGMYWVRQAPGKGLEWVAVIWYDGSNKYYADSVKGRFTISRDNSKNTLYLQMNSLRAEDTAVYYCARDLWGWYFDYWGQGTLVTVSS
VL: EIVLTQSPATLSLSPGERATLSCRASQSVSSYLAWYQQKPGQAPRLLIYDASNRATGIPARFSGSGSGTDFTLTISSLEPEDFAVYYCQQRRNWPLTFGGGTKVEIK
notes: Human IgG (kappa) from a hybridoma, protein A purified; also called mAb #8; HuMab 3G9-2D2
For B4, in assay [2], the Ka worked out at 4.7e+09 M⁻¹, the Kd turned out to be 0.24 nM, the koff is 0.00019 s⁻¹ and the kon amounted to 900000 M⁻¹ s⁻¹.

B5: 3D6-2F4 (antibody, V domains shown)
VH: QVQLVESGGGVVQPGRSLRLSCAASGFIFSIYGMHWVRQAPGKGLEWVAVIWYDGSNKYYADSVKGRFTISRDNSKNTLYLQMNSLRAEDTAVYYCARAPHFDYWGQGTLVTVSS
VL: DIQMTQSPSSLSASVGDRVTITCRASQGISSWLAWYQQKPEKAPKSLIYAASSLQSGVPSRFSGSGSGTDFTLTISSLQPEDFATYYCQQYNSYPYTFGQGTKLEIK
notes: Human IgG (kappa) from a hybridoma, protein A purified; also called mAb #5; HuMab 3D6-2F4
As for B5, in assay [2], the Ka came to 1.5e+10 M⁻¹, binding was put at a Kd of 0.08 nM, the dissociation rate constant (koff) amounted to 0.00012 s⁻¹ and the association rate constant (kon) is 1.8e+06 M⁻¹ s⁻¹.

B6: 3D6-4C8 (antibody, V domains shown)
VH: B5 VH
VL: AIQLTQSPSSLSASVGDRVTITCRASQGISSALAWYQQKPGKAPKLLIYDASSLESGVPSRFSGSGSGTDFTLTISSLQPEDFATYYCQQFNSYPLTFGGGTKVEIK
notes: Human IgG (kappa) from a hybridoma, protein A purified; also called HuMab 3D6-4C8
Take B6: the binding result in assay [3] and in assay [4] was “binds” throughout.

These data come from patent US20090175880A1 (published 2009).
